Measurements published in publication PMC6644751 (2018).
Like-named read-outs stand apart in the source and are kept apart here.

T1: S100B (Homo sapiens, UniProt P04271)
T1 chain: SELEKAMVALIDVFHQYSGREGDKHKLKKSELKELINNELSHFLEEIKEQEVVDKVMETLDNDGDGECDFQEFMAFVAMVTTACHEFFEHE

T2: S100A11 (Homo sapiens, UniProt P31949)
T2 chain: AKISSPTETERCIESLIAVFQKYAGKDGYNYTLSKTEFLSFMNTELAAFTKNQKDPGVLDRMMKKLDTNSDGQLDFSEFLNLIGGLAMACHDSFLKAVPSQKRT


Experiments:
Assay in all cases: HSQC-NMR titration
[1] = target: T1, S100B
[2] = target: T1, S100B
[3] = target: T2, S100A11

| Kd [1] [nM] | Kd [2] [nM] | Kd [3] [nM] | Binder |
| --- | --- | --- | --- |
| ~2650 | ~2800 | – | S100A11 (protein, Ca2+, monomers after urea denaturation/renaturation) AKISSPTETERCIESLIAVFQKYAGKDGYNYTLSKTEFLSFMNTELAAFTKNQKDPGVLDRMMKKLDTNSDGQLDFSEFLNLIGGLAMACHDSFLKAVPSQKRT |
| – | – | ~2500 | S100B (protein, Ca2+, monomers after urea denaturation/renaturation) SELEKAMVALIDVFHQYSGREGDKHKLKKSELKELINNELSHFLEEIKEQEVVDKVMETLDNDGDGECDFQEFMAFVAMVTTACHEFFEHE |
